Measured values: article PMC7790415, “Loss of endocytosis-associated RabGEF1 causes aberrant morphogenesis and altered autophagy in photoreceptors leading to retinal degeneration” (PLoS Genetics, 2020)
Several values for one entry are separate records, joined by “and”; a condition that tells them apart may be missing. Equal values may be shown once.

Target: T1, RabGEF1 (mouse (endogenous in retina), UniProt Q9JM13 1-491)
T1 construct: RabGEF1 (Rabex-5), mouse, endogenous protein of retinal extracts, immunoprecipitated with anti-RabGEF1 antibody; Endogenous protein; also called Rabex-5; Rabex5; source: endogenous, mouse retina extract (control retina)
Experiment: affinity purification with mass spectrometry; anti-RabGEF1 and IgG immunoprecipitates from control and Rabgef1-/- mouse retinal lysates; trypsin digest, LC-MS on Orbitrap Lumos (n = 2)
Details: partners not purified

T1 sequence (Q9JM13 whole entry): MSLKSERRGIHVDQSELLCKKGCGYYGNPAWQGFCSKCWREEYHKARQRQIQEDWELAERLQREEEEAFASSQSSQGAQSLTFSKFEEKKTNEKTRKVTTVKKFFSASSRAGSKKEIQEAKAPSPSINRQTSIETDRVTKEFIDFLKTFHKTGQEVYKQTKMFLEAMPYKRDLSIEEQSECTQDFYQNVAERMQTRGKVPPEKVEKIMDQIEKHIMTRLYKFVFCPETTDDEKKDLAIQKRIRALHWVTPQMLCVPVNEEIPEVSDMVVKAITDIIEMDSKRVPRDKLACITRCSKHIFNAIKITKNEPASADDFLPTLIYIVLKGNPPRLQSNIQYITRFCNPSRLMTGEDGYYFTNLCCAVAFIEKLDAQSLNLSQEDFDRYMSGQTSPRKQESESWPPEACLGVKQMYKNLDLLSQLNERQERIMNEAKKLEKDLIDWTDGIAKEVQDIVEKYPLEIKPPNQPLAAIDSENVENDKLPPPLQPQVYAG

B1: Rabaptin-5 (natural protein, mouse (endogenous in retina), UniProt O35551 1-862, looked up)
chain: MAQPGPAPQPDVSLQQRVAELEKINAEFLRAQQQLEQEFNQKRAKFKELYLAKEEDLKRQNAVLQAAQDDLGHLRTQLWEAQAEMENIKAIATVSENTKQEAIDEVKRQWREEVASLQAIMKETVRDYEHQFHLRLEQERAQWAQYRESAEREIADLRRRLSEGQEEENLENEMKKAQEDAEKLRSVVMPMEKEIAALKDKLTEAEDKIKELEASKVKELNHYLEAEKSCRTDLEMYVAVLNTQKSVLQEDAEKLRKELHEVCHLLEQERQQHNQLKHTWQKANDQFLESQRLLMRDMQRMEIVLTSEQLRQVEELKKKDQEEDEQQRVNKRKDNKKTDTEEEVKIPVVCALTQEESSTPLSNEEEHLDSTHGSVHSLDADLMLPSGDPFSKSDNDMFKDGLRRAQSTDSLGTSSSLQSKALGYNYKAKSAGNLDESDFGPLVGADSVSENFDTVSLGSLQMPSGFMLTKDQERAIKAMTPEQEETASLLSSVTQGMESAYVSPSGYRLVSETEWNLLQKEVHNAGNKLGRRCDMCSNYEKQLQGIQIQEAETRDQVKKLQLMLRQANDQLEKTMKEKQELEDFLKQSAEDSSHQISALVLRAQASEVLLEELQQSFSQAKRDVQEQMAVLMQSREQVSEELVRLQKDNDSLQGKHSLHVSLQLAEDFILPDTVEVLRELVLKYRENIVHVRTAADHMEEKLKAEILFLKEQIQAEQCLKENLEETLQLEIENCKEEIASISSLKAELERIKVEKGQLESTLREKSQQLESLQEMKVNLEEQLKKETAAKATVEQLMFEEKNKAQRLQTELDVSEQVQRDFVKLSQTLQVQLERIRQADSLERIRAILNDTKLTDINQLPET
notes: Rabaptin-5 (also known as Rabep1), mouse, endogenous protein of retinal extracts; Endogenous protein; also called Rabep1; source: endogenous, mouse retina extract (control retina)
**Q.** How did the “stoichiometry N” value turn out when B1 was run?
**A.** The value was 0.5 Rabaptin-5 per RabGEF1 (printed as RabGEF1:Rabaptin-5 2:1) and 2 Rabaptin-5 per RabGEF1 (printed as RabGEF1:Rabaptin-5 1:2).
